The term Kd denotes the constant that tells how readily two partners part at equilibrium.

Positions count from the first letter of the chain named. Names may count otherwise.

Here are results for seven molecules from publication PMC7214410, “A deubiquitylase with an unusually high-affinity ubiquitin-binding domain from the scrub typhus pathogen Orientia tsutsugamushi” (Nature Communications, 2020).

Conditions in all cases: both partners purified
The target of experiment [1] is T1, untagged ubiquitin (UniProt P0CG48 1-76).
T1 construct: also called mono-ubiquitin; Mono Ub; source: E. coli, purified (heated to 85 °C, SP-Sepharose, Superdex 75)
Put plainly: ITC.

Experiment [2] has as its target T2, human ubiquitin (His tag cleaved, for the co-crystal) (human, UniProt P0CG48 1-76).
T2 construct: also called free ubiquitin; UbS1; source: E. coli BL21(DE3), purified (Ni-NTA, TEV cleavage, HiTrap S, Superdex 75)
The experiment in a line: crystal structure.

The target in experiment [3] is T3, 6His-ubiquitin (human, UniProt P0CG48 1-76).
T3 construct: also called His-tagged human ubiquitin; His-tagged ubiquitin; source: E. coli BL21(DE3), purified (Ni-NTA)
The experiment in a line: pull-down; GST-tagged UBD (25 µM) mixed with His-tagged ubiquitin (75 µM) in 25 mM Tris-HCl pH 8.0, 100 mM NaCl, 0.1 mM TCEP; glutathione sepharose 4B, 1 h at 2 °C; eluted with glutathione, Coomassie.

Experiment [4] has as its target T1, untagged ubiquitin. Put plainly: ITC. The source holds these as a separate data set. (Isothermal titration calorimetry measures the heat released or taken up as one component is titrated into another.)

B1: OtDUB_(170–264) (the UBD) (domain or fragment)
chain: VNFLSENRMITSAAAALADTLLKNNNRITEGVLVDRIFDNKILSVQEKQQLLNNLLDNHIKENKSLTKESLTRMLASTHFVQQQANVLLNEKFNK
notes: source: E. coli Rosetta DE3, purified (glutathione resin, SEC)
In the case of B1, in experiment [1], the dissociation constant Kd was 0.0053 ± 0.0039 µM.

B2: OtDUB_(1–259) (domain or fragment)
chain: GMANDQDLSNPEYLYTEDDINQLLKHYLGLDDRISIIQHVALNESLLLKQTLHQVLSDIFSGMQEKAVIPLHTGNNHWVAMAIKKGMNDDIVISYNDPMGVSIDDKVTLINCIKELCPGAKINDLQTVQQTNVYDCGPFVVDNLIKMSQGQPILSTEEAKQQAQNIRQSQVNFLSENRMITSAAAALADTLLKNNNRITEGVLVDRIFDNKILSVQEKQQLLNNLLDNHIKENKSLTKESLTRMLASTHFVQQQANVLLN
notes: also called OTT_1962 DUB domain with VR-1/UBD; DUB-UBD segment; source: E. coli BL21(DE3), purified (Ni-NTA, TEV cleavage, HiTrap Q, Superdex 75)
As for B2, in experiment [2], the binding result was “binds”.

B3: GST-UBD_(170–259) (domain or fragment)
chain: VNFLSENRMITSAAAALADTLLKNNNRITEGVLVDRIFDNKILSVQEKQQLLNNLLDNHIKENKSLTKESLTRMLASTHFVQQQANVLLN
notes: also called GST-tagged UBD; OtDUBUBD; source: E. coli BL21(DE3), purified (Ni-NTA, GSTrap HP)
In the case of B3, the binding result in experiment [3] is given as “binds”.

B4: GST-UBD_(170–259) F207D (domain or fragment)
chain: B3 chain with F38D
notes: source: E. coli BL21(DE3), purified (Ni-NTA, GSTrap HP)
As to B4, the binding result in experiment [3] is given as “binds”.

B5: GST-UBD_(170–259) N222A/D226A (domain or fragment)
chain: B3 chain with N53A, D57A
notes: also called charge-neutralizing mutant; source: E. coli BL21(DE3), purified (Ni-NTA, GSTrap HP)
Consider B5, for which the binding result in experiment [3] is listed as “binds”.

B6: GST-UBD_(170–259) D204A/D208A (domain or fragment)
chain: B3 chain with D35A, D39A
notes: as for B5
As for B6, the binding result in experiment [3] is “binds”.

B7: OtDUB_(1–177)-C135A (domain or fragment)
chain: MANDQDLSNPEYLYTEDDINQLLKHYLGLDDRISIIQHVALNESLLLKQTLHQVLSDIFSGMQEKAVIPLHTGNNHWVAMAIKKGMNDDIVISYNDPMGVSIDDKVTLINCIKELCPGAKINDLQTVQQTNVYDAGPFVVDNLIKMSQGQPILSTEEAKQQAQNIRQSQVNFLSENR
Turning to B7, the Kd in experiment [4] came out at 6.3 ± 0.2 µM.
